Laboratory results taken from US20090022687A1, “Novel Pharmaceuticals That Use Anti-HLA Antibodies” (Chugai Seiyaku Kabushiki Kaisha, priority 2005, published 2009).

Tests used:
patient-derived MM cells = experiment: Cytotoxicity assay (Trypan Blue dye exclusion), patient-derived primary MM cells; format: cell-based, human; details: newly isolated MM cells, in the presence of a secondary antibody
Procedure: […] Cell viabilities were determined by WST-8 assays or Trypan Blue exclusion assays. […] (B) The morphological observations of myeloma cells after 2D7-DB treatment are shown. Purified MM cells derived from patient No. 18 were cultured for 24 hours in the presence (1 μg/mL) or absence of 2D7-DB. Next, cells were fixed on glass slides and stained with light Giemsa (original magnification,×1000). (C) A graph indicating the cytotoxic activity of 2D7-DB on the patients' MM cells is shown. CD138-positive MM cells were purified from six patients, and the cells were cultured for 24 hours with 2D7-DB (0.1 or 1μg/mL). Cell viabilities were determined by Trypan Blue exclusion assays.
Patients' MM cells were prepared as follows. First clinical disease stage classification and diagnosis of MM patients were performed according to the Durie and Salmon classification (Durie, B. CT, and S. E. Salmon. 1975. “A clinical staging system for multiple myeloma. Correlation of measured myeloma cell mass with presenting clinical features, response to treatment, and survival,” Cancer, 36:842-854). […]
Cytotoxicity assays were performed as follows. […] Cell viabilities were measured by WST-8 assays (Kishida Chemical, Osaka, Japan) for the cell lines, and by Trypan Blue dye exclusion assays for patient-derived primary MM cells. […]

IM-9 cells = experiment: Cytotoxicity assay (WST-8 cell viability); format: cell-based, human; details: IM-9, 24 hours after cross-linking with the secondary antibody
Procedure: In other experiments, cells were cultured with 2D7-DB in the absence of the goat anti-mouse IgG antibody. Cell viabilities were determined by WST-8 assays or Trypan Blue exclusion assays. […] (B) The morphological observations of myeloma cells after 2D7-DB treatment are shown. Purified MM cells derived from patient No. 18 were cultured for 24 hours in the presence (1 μg/mL) or absence of 2D7-DB. Next, cells were fixed on glass slides and stained with light Giemsa (original magnification,×1000). (C) A graph indicating the cytotoxic activity of 2D7-DB on the patients' MM cells is shown. CD138-positive MM cells were purified from six patients, and the cells were cultured for 24 hours with 2D7-DB (0.1 or 1μg/mL). Cell viabilities were determined by Trypan Blue exclusion assays.
Cytotoxicity assays were performed as follows. […] Cell viabilities were measured by WST-8 assays (Kishida Chemical, Osaka, Japan) for the cell lines, and by Trypan Blue dye exclusion assays for patient-derived primary MM cells. Apoptosis induction was assessed by flow cytometric analysis with Annexin V and PI staining (MEBCYTO apoptosis kit MBL, Nagoya, Japan).
Next, cytotoxic effects of single chain Fv-type 2D7 mAb (2D7-DB) on MM cell lines and patient-derived MM cells were assessed. […]

HLA-A on CD34+ cells = experiment: Two-color flow cytometry of a peripheral blood stem cell collection; format: binding, human; details: CD34+ cells in a peripheral blood stem cell collection, n=3
[1] = test system: HLA class I on K562 cells; experiment: Cell surface expression analysis of HLA class I by flow cytometry; format: binding, human; details: K562, chronic myeloid leukemia cells; FITC-labeled mAb
Procedure: (§1) Reactivity of 2D7 mAb in tumor cell lines and myeloma cells derived from multiple myeloma patients were assessed by flow cytometry.
(§2) The tumor cell lines used were prepared as follows. The myeloma cell line RPMI 8226, B lymphoblastic cell lines (IM-9, Raji, H S-Sultan, and Daudi), the T lymphoblastic cell line CEM, the chronic myeloid leukemia cell line K562, the lung adenocarcinoma cell line A549, the colon adenocarcinoma cell line COLO 201, and the gastric adenocarcinoma cell line MKN-1 were obtained from the Health Science Resources Bank (Osaka, Japan). The myeloma cell line U266-B1, the B lymphoblastic cell line ARH-77, the T-lymphoblastic cell line Jurkat the breast cancer cell line MCF-7, the hepatocellular carcinoma HepG2, the clear cell renal cell carcinoma Caki-2, and the malignant melanoma MeWo were obtained from the American Type Culture Collection (Manassas, Va.). The EBV-transformed B-cell line YN was a gift from Dr. Yasuhiko Nishioka (The University of Tokushima). These cell lines were cultured in an RPM-1640 medium (Sigma-Aldrich, St. Louis, Mo.) supplemented with 10% fetal calf serum (Gibco BRL, Grand Island, N.Y.) and penicillin (100 U/mL) under a humidified atmosphere of 5% CO2 at 37° C.
(§3) Cell surface expression analysis of HLA class I by flow cytometry was performed as follows using FITC-labeled 2D7 mAb or FITC-labeled anti-HLA-ABC common region mAb (Chemicon, San Diego, Calif.). The cells (5×10^5 cells) were washed twice with PBS, and then incubated on ice for 40 minutes with FITC-labeled 2D7 mAb or FITC-labeled anti-HLA-ABC common region mAb. MM patient-derived BMMCs were incubated on ice for 15 minutes with 2% γ globulin diluted in PBS, and stained with FITC-labeled 2D7 mAb and PE-labeled anti-CD38 mAb (BD Bioscience, San Jose, Calif.) for myeloma cell gating. Next, the cells were washed twice with PBS, and analyzed using an EPICS XL flow cytometer (Beckman Coulter, Japan). In several experiments, the cells were stimulated for 48 hours with IFNα or IFNγ prior to HLA class I expression analysis. HLA class I expression levels were evaluated as GeoMFI using the CellQuest software (BID Biosciences).

HLA class I on CEM cells = experiment: as above; format: binding, human; details: T-lymphoblastic cells, FITC-labeled mAb
Procedure: as §1, §2, §3

[2] = test system: HLA class I on COLO 201 cells; experiment: as above; format: binding, human; details: COLO 201, colon adenocarcinoma cells; FITC-labeled mAb
Procedure: as §1, §2, §3

[3] = test system: HLA class I on MKN-1 cells; experiment: as above; format: binding, human; details: MKN-1, gastric adenocarcinoma cells; FITC-labeled mAb
Procedure: as §1, §2, §3

[4] = test system: HLA class I on Raji cells; experiment: as above; format: binding, human; details: B-lymphoblastic cells, FITC-labeled mAb
Procedure: as §1, §2, §3

[5] = test system: HLA class I on IM-9 cells; experiment: as above; format: binding, human; details: IM-9, B-lymphoblastic cells; FITC-labeled mAb
Procedure: as §1, §2, §3

B1: 2D7: monoclonal antibody obtained by immunizing human myeloma cells; recognizes HLA class I (HLA-A) (antibody, V domains shown)
VH: QVQLQQSGPELVKPGASVKMSCKASGYTFTDYFIHWVKQRPGQGLEWIGWIFPGDDTTDYNEKFRGKTTLTADKSSSTAYILLSSLTSEDSAMYFCVRSDDFDYWGQGTTLTVSS
VL: QIVLTQSPAIMSASPGEKVTITCSASSSVSYMHWFQQKPGTFPKLWIYSTSNLASGVPTRFSGSGSGTSYSLTISRMEAEDAATYYCQQRTSYPPTFGSGTKLEIK
Q: B1 was tested. Which cell viability (patient-derived MM cells) did it give?
A: inhibited

Q: And the “inhibition of cell viability” value (IM-9 cells)?
A: more efficiently than W6/32, B9.12.1, and JOAN-1

Q: What about the “HLA-A expression, GeoMFI” value (HLA-A on CD34+ cells) of the same molecule?
A: 109±16

Q: What about the “Expression (geometric mean fluorescence intensity)” value [1] of the same molecule?
A: 11

Q: And the “Expression (geometric mean fluorescence intensity)” value (HLA class I on CEM cells)?
A: 72

Q: And the “Expression (geometric mean fluorescence intensity)” value [2]?
A: 105

Q: And the “Expression (geometric mean fluorescence intensity)” value [3]?
A: 49

Q: And the “Expression (geometric mean fluorescence intensity)” value [4]?
A: 297

Q: And the “Expression (geometric mean fluorescence intensity)” value [5]?
A: 662
